Here are results for four molecules from paper PMC3930596, “Insights into the Initiation of JC Virus DNA Replication Derived from the Crystal Structure of the T-Antigen Origin Binding Domain”.

Data set [1] addresses JCV T-antigen origin-binding domain (OBD; residues 132-261) (JC virus). Briefly: crystal structure; crystal form 1, space group C2, 1.64 Å, two molecules in the asymmetric unit; 0.1 M sodium citrate pH 5.6, 30% PEG 3350, 18 C; interfaces analysed with PISA.
Data set [2] has the same target. Briefly: crystal structure; crystal form 2, space group I4_(1), 2.6 Å; 0.1 M Tris pH 8.5, 0.2 M LiSO4, 30% PEG 4000, 4 C; contacts with symmetry mates.
Data set [3] has as its target JCV T-antigen origin-binding domain (residues 132-261) with tartrate-modified Lys168 (crystal form 3) (JC virus). Kind of data set: crystal structure; crystal form 3, space group P4_(1), 1.32 Å, one molecule in the asymmetric unit; 0.19 M sodium tartrate, 19% PEG 3350, 4 C; contacts with symmetry mates.
For data set [4], the target named is T1, JCV T-antigen origin-binding domain (OBD) (JC virus (JCV), UniProt P03072 132-261).
T1 sequence: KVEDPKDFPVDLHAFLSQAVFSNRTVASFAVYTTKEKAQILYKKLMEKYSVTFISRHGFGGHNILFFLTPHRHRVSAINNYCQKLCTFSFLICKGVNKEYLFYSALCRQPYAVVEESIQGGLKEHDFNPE
Briefly: ITC; average of four titrations; titration shown in Fig. 4A ~278 nM; N = 4 OBDs per duplex; ITC (VP-ITC): 10 mM sodium phosphate pH 7.0, 50 mM NaCl; temperature not stated; OBD in syringe (~80 uM for Site II, 40 uM for Site I), DNA 1.5 uM / 1.0 uM. The following applies: protein: recombinant; tags: N-terminal GST removed by thrombin; chain copies: 4; blunt.

For data set [5], the target named is T1, JCV T-antigen origin-binding domain …. Kind of data set: ITC; ITC (VP-ITC): 10 mM sodium phosphate pH 7.0, 50 mM NaCl; temperature not stated; OBD in syringe (~80 uM for Site II, 40 uM for Site I), DNA 1.5 uM / 1.0 uM. Particulars: protein: recombinant; tags: N-terminal GST removed by thrombin; chain copies: 4; blunt.

One may read the stoichiometry N as the number of molecules, sites or subunits per partner or assembly. For the molecule “JCV T-antigen origin-binding domain (OBD; residues 132-261) (domain or fragment)”, the stoichiometry N in data set [1] and in data set [2] was 4 in each case.

In turn, “JCV T-antigen origin-binding domain (residues 132-261) with tartrate-modified Lys168 (crystal form 3) (domain or fragment)” returned a stoichiometry N in data set [3] of 4.

B1: JCV Site II 33 bp (dsDNA)
DNA 1: TACAGGAGGCCGAGGCCGCCTCCGCCTCCAAGC
DNA 2: GCTTGGAGGCGGAGGCGGCCTCGGCCTCCTGTA
Broadly, the Kd is the equilibrium constant for the complex coming apart. B1: in data set [4], the Kd was 299 nM.

B2: JCV Site I 28 bp (dsDNA)
DNA 1: GCGTGGAGGCTTTTTAGGAGGCCAGGGA
DNA 2: TCCCTGGCCTCCTAAAAAGCCTCCACGC
With B2, the Kd in data set [5] came to 18.3 nM.
